The results in this text go back to the DeepSol protein solubility set.

The nature of the data set: soluble on expression in E. coli; label from the status in PepcDB or PDB records.
Turning to “MGSDKIHHHHHHMDNYEGSDPWNTSSNAWTKDDDHVVSTTNSEPSLNGISGEFNTLNFSTPLDTNEEDTGFLPTNDVLEESIWDDSRNPLGATGMSQTPNIAANETVIDKNDARDQNIEESEADLLDWTNNVRKTYRPLDADIIIIEEIPEREGLLFKHANYLVKHLIALPSTSPSEERTVVRRYSDFLWLREILLKRYPFRMIPELPPKRIGSQNADQLFLKKRRIGLSRFINLVMKHPKLSNDDLVLTFLTVRTDLTSWRKQATYDTSNEFADKKISQEFMKMWKKEFAEQWNQAASCIDTSMELWYRITLLLERHEKRIMQMVHERNFFETLVDNFSEVTPKLYPVQQNDTILDINNNLSIIKKHLETTSSICKQETEEISGTLSPKFKIFTDILLSLRSLFERYKIMAANNVVELQRHVELNKEKLESMKGKPDVSGAEYDRIKKIIQKDRRSIIEQSNRAWLIRQCILEEFTIFQETQFLITRAFQDWAKLNSNHAGLKLNEWEKLVTSIMDMPISRE”, the “soluble on expression in E. coli” value is reported as “not soluble”.
As to “MGHHHHHHSHMAIPITVLDCDLLLYGRGHRTLDRFKLDDVTDEYLMSMYGFPRQFIYYLVELLGANLSRPTQRSRAISPETQVLAALGFYTSGSFQTRMGDAIGISQASMSRCVANVTEALVERASQFIRFPADEASIQALKDEFYGLAGMPGVMGVVDCIHVAIKAPNAEDLSYVNRKGLHSLNCLMVCDIRGTLMTVETNWPGSLQDCAVLQQSSLSSQFEAGMHKDSWLLGDSSFFLRTWLMTPLHIPETPAEYRYNMAHSATHSVIEKTFRTLCSRFRCLDGSKGALQYSPEKSSHIILACCVLHNISLEHGMDVWSSPMTGPMEQPPEEEYEHMESLDLEADRIRQELMLTHFS”, the “soluble on expression in E. coli” value is listed as “not soluble”.
With “MGSDKIHHHHHHMKNTEIRKNIFPVGFYDDIHPDFSVNFQMNRCYTMTNDDVMLKEMREISPSIHNYEEFIEKFLELYNKALNEGHKLRAAYYLRTAEFYMTADHPQKQNYRKQFISLMQEYFNISDEQPYKVPYENGFLPAYRFTSEAPKGTIVMFGGFDSYVEEMFKMALFLKEAGYDVVFFDGPGQGSALEDYKIPMTHEWEKPVKSILDYFELDDVTLLGISLGGYLTVRAAAFEKRVHRVIADDILSNFYEVVLNTLPSQLKEKVNSLMSDGNEQEVNILFKDLMKKSLMVEWAINQGMHITGSKTPYEFLNKILLYNTSKISEKLEQDVLLMAAQEDHYIPLNQFFDQSKSLINVRSLTTRMFTRKETAQNHCQSGNLGLAFEVIANWIEQIQK”, the “soluble on expression in E. coli” value is “not soluble”.
In the case of “MVDQAQDTLRPNNRLSDMQATMEQTQAFENRVLERLNAGKTVRSFLITAVELLTEAVNLLVLQVFRKDDYAVKYAVEPLLDGDGPLGDLSVRLKLIYGLGVINRQEYEDAELLMALREELNHDGNEYAFTDDEILGPFGELHCVAALPPPPQFEPADSSLYAMQIQRYQQAVRSTMVLSLTELISKISLKKAFQK”, the “soluble on expression in E. coli” value is listed as “soluble”.
In the case of “MAHHHHHHMNEDAMKILNKCSGEKKKGEDLNSCNLLEYYKTKYSSIDIEKAKLILKEQFLIPDFREKQLECLNSIKRFEHVLNIMPTGGGKSLIYQVLPLIIEGISIVISPLISLIQDQIISLRNKKIVAETINSSLNKKENERILDILKSQDLGNLKVLYITPETATSGYFIDILYELYINKKISLISIDEVHCISTWGSDFRKSYRNLNKILDICPYVRTYCCTATATKFVEKDIIRNLNFYIFNKDCDNNINNNNINNNNNIHNNNKYDDHNNNCKVLNIVRTSFNRPNLKYIIIYSDLIKDEKKNSVCDIINEKRNKGKIGIIYCFKRNTCDEISKYLREKGIQALSYHAGLTNNTRKRIQQKWISGKTNILVATIAFGMGIDRKDVSFIIHYNLPKSIENYYQESGRCGRSGHISFCYLFYSKEDVEKLSYIIKTSFAHLDMHDVNIEKKYEKEIYNLECVHNLCINEKCIRSQILSYFGETYPNKNLQTNNTSDHNKQTYKNQTHVEKYNFDTANMYHPSDQNKDNLTDEHFCCSFCYDTKGSRIKIQKVINLYENKKGSNISQFYSKGETHEYNYLYTNNGKHKLYDDDTYYSPSGEEPREKRSTNYYNKYGDKYGDKYDDKYDDKYDEKYDDKYGDRKLQEGIYKLNNKKIKGYIPFQSASSIIPKQIRDKGIIEVMKELEKREEELNEKTKNDQEKHKVNKMNLFKSNSMNVKRKHVFSSFKIPRKI”, the “soluble on expression in E. coli” value was “not soluble”.
Under “MTNTLVENIYASVTHNISKKEASKNEKTKAVLNQAVADLSVAASIVHQVHWYMRGPGFLYLHPKMDELLDSLNANLDEVSERLITIGGAPYSTLAEFSKHSKLDEAKGTYDKTVAQHLARLVEVYLYLSSLYQVGLDITDEEGDAGTNDLFTAAKTEAEKTIWMLQAERGQGPAL” stands “soluble”.
Regarding “MKRSIAPLLVCPACLPKERPLELTATAEADGDITAGHLSCKGCRRRFPIRDGIAVLLPDPDTGPSGGQWKYEEQGTLATYLWSHFADLAGDPEAGDAYASWASALAGNAETSLDAGCAVGRLTFELGQRSGLAVGFDLSLTFIRAARQLARERQIRFSLPREGNLRDEFRLTLPDCWRTDEVEFVVADALAIPFARETFDRTASLNLIDRVSYPLAHLYEMNRVARLSGASFLLSDPFSWSTANAPEEKWLGGTESGPYSGRGMDNVKAILGGKEAIIAPPWTVAREGSVWWKIRSHRNHFELIRSEFLVAERLEHHHHHH”, the “soluble on expression in E. coli” value is “not soluble”.
With “MENVVIIDAVRTPMGRSKGGAFRHVRAEDLSAHLMRAVISRNPGLNAAEIDDIYWGCVQQTLEQGFNIARNASLLAEIPHSVPAVTVNRLCGSSMQALHDGARAIMVGDAKISLIGGVEHMGHVPMNHGVDFHPGMGRTVAKAAGMMGLTAEMLAKIHNISRQSQDEFAFRSHQRAYAATQAGHFAKEIVATNGHDAEGVLKRFDFDEVIRPETNLSGLAALRPAFDPVNGTVTAGTSSALSDGASAMLIMSESRAKSLGLTPRARIRSMAVVGCDPSIMGYGPVPASQLALKRAGLELADIGLFELNEAFAAQSLACLKGLGLLESMDDKVNLNGGAIALGHPLGCSGARISTTLLNLMERRDVQFGLATMCIGLGQGIATVFERL”, the “soluble on expression in E. coli” value was “not soluble”.
Consider “GPLGSAGSSWQCDTCLLQNKVTDNKCIACQAAKLPLKETAKQTGIGTPSKSDKPASTSGTGFGDKFKPAIGTWDCDTCLVQNKPEAVKCVACETPKPG”, for which the “soluble on expression in E. coli” value is “soluble”.
Under “MGSDKIHHHHHHLNNQIKIFEGNKIRSIWDNEKEEWYFSVVDVVAVLTESKDPQVYWRVLKKRLKEEGNKTVTNCNALKMKAADGKMRLTDVADMQGIFRIIQSVPSPKAEPFKMWLAEVGKERIDEIIDPELTIDRALETYLKKGYSREWINQRLQAIQVRKELTDTWQDHGVEKGKEYAILTNEITKAWSGMTTREYKDLKGLKKENLRDNMSTLELVLNMLAEATTTELTNATHPQGLEENKKVAKRGGSIAGNARKEIEQETGKSVITSKNAIDFVKLIEDVSSKEFEDKDKKDKD” stands “not soluble”; under “MGSDKIHHHHHHMPGTAARPAPIRVTYAEVMQRIIGTEVEYGISSPSDPTANPILTSTQAVLAYAAAAGIQRAKRTRWDYEVESPLRDARGFDLSRASGPPPVVDADEVGAANMILTNGARLYVDHAHPEYSAPECTDPLDAVIWDKAGERVMEAAARHVASVPGAAKLQLYKNNVDGKGASYGSHENYLMSRQTPFSAVIAGLTPFLVSRQVVTGSGRVGIGPSGDEPGFQLSQRADYIEVEVGLETTLKRGIINTRDEPHADADKYRRLHVIIGDANLAETSTYLKLGATSLVLDLIEEGMDLSDLALARPVHAVHVISRDPSLRATVAMADGRELTALALQRIYLDRVAKLVDSRDPDPRAAHVVETWAEVLDLLERDPMECAEILDWPAKLRLLEGFRHRENLGWSAPRLHLVDLQYSDVRLDKGLYNRLVARGSMKRLVTEQQVLDAVDSPPTDTRAYFRGECLRRFGADIAAASWDSVIFDLGGDSLVRIPTLEPLRGSKAHVGALLDSVDSAVQLVEQLTAT”, “not soluble”.
On to “MAHHHHHHMNTHVISVGSRWVHHEVTQALRQRRGVRVEVNEELQHCDFASRASSVLYCDAHSAEMQRDQASLVLRLQEARQRCGTQPVILMVRMDSDNEVSLERLSWLNLECGVAQQCGLILVWSLDDAVQYLASLAAYAVTSLEFTGAARPYVGDAPLPVLVDALTQTPQVVTRNDVVRIANRKTSVADALMSEASEWEGIAGLDARKRLVCSTSFAHHLCPRSSASTPLYRPPAAAVSLPLIKPQNLISRSQQESPQRGRQRPLASTRP”, for which the “soluble on expression in E. coli” value is reported as “not soluble”.
In the case of “MGHHHHHHSHMDNAEAQFTTALRLTNHQELWAFIVTNLASVYIREGNRHQEVLYSLLERINPDHSFPVSSHCLRAAAFYVRGLFSFFQGRYNEAKRFLRETLKMSNAEDLNRLTACSLVLLGHIFYVLGNHRESNNMVVPAMQLASKIPDMSVQLWSSALLRDLNKACGNAMDAHEAAQMHQNFSQQLLQDHIEACSLPEHNLITWTDGPPPVQFQAQNGPNTSLASLL”, the “soluble on expression in E. coli” value is recorded as “not soluble”.
For the sequence “MANLPSSSGMFSRLLANVFNTTVASRCSASGRWWPQPEYELSKHRSRAPSMGIHRRTRLNVVDNSALGKEADTTGKLPYCIHVYKQGRRAKHMPHAELGDKILVAIRGQMRKAYVVGANTHVHYRKHGVPVTDQNMIVLLDEEGNPLGNRITAPIPTKLMANRGNVQFSKVLALANKFI”, the “soluble on expression in E. coli” value is recorded as “soluble”.
Take “SESSGGPTSSLAGTSRNTHVEDDDVVFIESVQPPICAPAIPNERNFVFASSKHENPPGTDSTISPSWRDLTSQKGNLCETIVIDDEGDTDTNGGEEKNPTDFIEWGPNGNKSSTKNVDFPIASLSRSKTKTAVGPFNPGRIDVTDAFQNGRFAVHHNPDSWISQSASFPRNQKQQGVDSLSPVASLPKQIFQPSNQQPTKPVKVTCANCKKPLQKGQTAYQRKGSAHLFCSTTCLSSFSHKRTRKTRNVMCKK”: the “soluble on expression in E. coli” value is on record as “soluble”.
Turning to “MSWQTYVDDHLMCDIDGHRLTAAAIIGHDGSVWAQSSSFPQFKSDEVAAVMKDFDEPGSLAPTGLHLGGTKYMVIQGEPGAVIRGKKGSGGITVKRTGQALIIGIYDEPLTPGQCNMIVERLGDYLLDQGL”, the “soluble on expression in E. coli” value was “soluble”.
“MEPADEPSELVSAEGRNRKAVLCQRCGSRVLQPGTALFSRRQLFLPSMRKKPALSDGSNPDGDLLQEHWLVEDMFIFENVGFTKDVGNIKFLVCADCEIGPIGWHCLDDKNSFYVALERVSHE”: the “soluble on expression in E. coli” value was “soluble”.
Turning to “MNELIGFVNGNSVRQKVLSLLASKGEMEGKRISKTLRVVYPTIAKTLEELEEKNLISKKEEIYFLTETGTKIEKMVQQI”, the “soluble on expression in E. coli” value was “not soluble”.
With “MGSDKIHHHHHHMQKKRFFDMRKYRFFSSIECDAMLTFKQMEALYWIVQLGSFDAAATRLNTTQSAVSKRIQELERAFDLTVFDRAHRSARLTDKGAELFDHAKELLEQRDRVVERMSSKEALVRHVRIGVTELTALTWLPRLIAAIQAAYPRVHVEAEVDLTATLRERLAADTIDLIVVPQIHAAESFAATVVGEVDNAWMCAPGFMPKRKTAISLTDVARFPLILQGTLSGTGHLYTRFLQEHCVAMQRVLTSNSLIAQIGLTLSGLGVSYLPKACVAHLVACEALDIVRTRPALPPVRYVALHRAERAHSLTADIVRLAAQACDFSTSLLDPGAHD” the entry was “not soluble”.
Under “MMRITGKHCLRVAILSIQRSGMIHPRNTNGSKAKNVMVADGCVIEGTVENSILSRGVKIGKNAKVKNCILLQDTVIEDGANLEYVITDKNVRVSRNRSLTGNDSFQVYVAKGQTV” stands “not soluble”.
